The values that follow come from patent publication US20030162942A1 (DYAX, published 2003).

Changes are numbered by the printed parent chain.

Test [1] deals with T1, recombinant human tissue-type plasminogen activator (tPA) (human, UniProt P00750 36-562).
T1 construct: Immobilized on ReactiGel agarose beads for the phage work; Used in solution for the column tests
The experiment in a line: phage display selection on tPA agarose beads, binding at pH 7. The method, then:
For this work, tPA was purchased from CalBiochem (#612200) and immobilized on ReactiGel™ agarose beads from Pierce Chemical Company by methods described in Markland et al. (1996). Approximately 200 μg of tPA were coupled to 200 μL of ReactiGel™ slurry.
The phage libraries described were screened for binding to tPA through four rounds. In the first round, the phage libraries were mixed in separate reactions with tPA agarose beads at pH 7 in phosphate-buffered saline (PBS). Bovine serum albumin (BSA) was added at 0.1% to reduce non-specific binding. Unbound phage were washed off at pH 7, and the bound phage eluted at pH 2 for the first screen only. […] Pool A consisted of the combined outputs from the CMTI and Lib#1 libraries, and Pool B consisted of the combined outputs of the Lib#3 and Lib#5 libraries. The binding of pooled libraries was performed at pH 7, however, the first elution to remove bound phage was carried out at pH 5 and a subsequent elution at pH 2 to elute phage that are released in the pH 5-pH 2 range. This was repeated twice more for a total of 4 rounds of selection.

Test [2] has as its target human serum protease plasmin (human, UniProt P00747 97-810, limits assumed). As to the kind of experiment: phage binding to protein on beads (data not shown).
In test [3] the target is human serum protease thrombin (human, UniProt P00734 328-622). The experiment in a line: phage binding to protein on beads (data not shown).
The target of test [4] is T1, recombinant human tissue-type …. As to the kind of experiment: phage isolate binding to and pH release from immobilized tPA.

T1 sequence (P00750 36-562 limits assumed): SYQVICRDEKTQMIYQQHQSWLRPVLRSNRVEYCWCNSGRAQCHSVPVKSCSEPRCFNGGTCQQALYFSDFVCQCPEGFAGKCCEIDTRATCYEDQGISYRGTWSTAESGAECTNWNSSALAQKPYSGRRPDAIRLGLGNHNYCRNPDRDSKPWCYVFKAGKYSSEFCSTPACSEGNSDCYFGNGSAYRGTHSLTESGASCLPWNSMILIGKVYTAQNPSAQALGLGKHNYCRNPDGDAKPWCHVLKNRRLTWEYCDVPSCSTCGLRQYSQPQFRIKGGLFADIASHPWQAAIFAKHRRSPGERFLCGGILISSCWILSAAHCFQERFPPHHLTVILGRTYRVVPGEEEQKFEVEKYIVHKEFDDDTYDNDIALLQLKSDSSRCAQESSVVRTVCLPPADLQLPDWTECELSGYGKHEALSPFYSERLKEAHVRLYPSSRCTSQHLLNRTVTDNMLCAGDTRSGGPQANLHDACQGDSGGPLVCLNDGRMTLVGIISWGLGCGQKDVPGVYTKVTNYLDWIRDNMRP
Chain of human serum protease plasmin (P00747 97-810 limits assumed): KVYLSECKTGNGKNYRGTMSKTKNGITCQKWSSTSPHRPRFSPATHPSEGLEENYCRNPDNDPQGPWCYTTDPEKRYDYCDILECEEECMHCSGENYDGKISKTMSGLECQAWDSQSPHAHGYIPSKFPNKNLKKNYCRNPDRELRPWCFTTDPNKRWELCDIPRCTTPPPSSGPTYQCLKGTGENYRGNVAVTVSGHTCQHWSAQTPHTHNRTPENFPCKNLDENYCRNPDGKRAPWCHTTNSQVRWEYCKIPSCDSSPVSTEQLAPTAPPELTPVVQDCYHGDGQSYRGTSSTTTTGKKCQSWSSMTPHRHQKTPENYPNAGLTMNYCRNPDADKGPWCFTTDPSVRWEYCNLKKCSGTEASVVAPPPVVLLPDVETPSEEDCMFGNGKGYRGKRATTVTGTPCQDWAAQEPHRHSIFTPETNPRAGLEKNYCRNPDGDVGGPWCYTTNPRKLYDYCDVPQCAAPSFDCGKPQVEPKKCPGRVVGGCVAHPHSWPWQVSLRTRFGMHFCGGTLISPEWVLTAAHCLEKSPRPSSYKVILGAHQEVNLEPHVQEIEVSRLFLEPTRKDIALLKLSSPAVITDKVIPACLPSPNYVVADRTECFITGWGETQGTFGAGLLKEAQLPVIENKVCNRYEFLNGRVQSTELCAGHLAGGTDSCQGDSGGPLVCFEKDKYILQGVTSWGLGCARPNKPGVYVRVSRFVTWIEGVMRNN

B1: CMTI-I analogue 120, phage isolate (designed binder)
chain: RWCPKTSLECMKDSDCLAECVCLEHGYCGAGPSYIEGRIVGSA
notes: not shown: mature gene III protein of M13 phage
Regarding B1, the binding result in test [1] is “binds”; in test [2], “no binding”; in test [3] it was “no binding”.

B2: CMTI-I analogue 226, phage isolate (designed binder)
chain: B1 chain with K5R, T6S, S7N
notes: as for B1
Regarding B2, the binding result in test [1] was “binds”; in test [2], “no binding”; in test [3] it was “no binding”.

B3: CMTI-I analogue 102, phage isolate (designed binder)
chain: B1 chain with W2L, S7Y, E9G
notes: as for B1
With B3, the binding result in test [1] is “binds”; in test [2], “no binding”; in test [3], “no binding”.

B4: CMTI-I analogue 118, phage isolate (designed binder)
chain: B1 chain with K5R, S7V, L8R, E9R
notes: as for B1
As to B4, the binding result in test [1] is recorded as “binds”; in test [2], “no binding”; in test [3], “no binding”.

B5: CMTI-I analogue 223, phage isolate (designed binder)
chain: B1 chain with T6Y, S7T
notes: as for B1
In the case of B5, the values for the binding result in test [1], in test [2] and in test [3] were “binds”, “no binding” and “no binding”, respectively.

B6: CMTI-I analogue 106, phage isolate (designed binder)
chain: B1 chain with P4S, K5T, T6Y, E9G
notes: as for B1
Turning to B6, the results for the binding result in test [2], in test [3] and in test [4] were “no binding”, “no binding” and “binds”, respectively.

B7: CMTI-I analogue 224, phage isolate (designed binder)
chain: B1 chain with K5R, T6S
notes: as for B1
For B7, the binding result is given as “binds” in test [1], “no binding” in test [2] and “no binding” in test [3].

B8: CMTI-I analogue 221, phage isolate (designed binder)
chain: B1 chain with T6S, S7T, E9G
notes: as for B1
B8: the binding result is recorded as “binds” in test [1], “no binding” in test [2] and “no binding” in test [3].

B9: CMTI-I analogue 117, phage isolate (designed binder)
chain: B1 chain with E9G
notes: as for B1
As to B9, the binding result in test [1] is given as “binds”; in test [2], “no binding”; in test [3], “no binding”.

B10: CMTI-I analogue 114, phage isolate (designed binder)
chain: B1 chain with T6S, S7A, E9D, M11K
notes: as for B1
Turning to B10, the binding result in test [1] is “binds”; in test [2] it was “no binding”; in test [3] it was “no binding”.

B11: CMTI-I analogue 235, phage isolate (designed binder)
chain: B1 chain with T6S, S7T, E9G
notes: as for B1
Consider B11, for which the results for the binding result in test [1], in test [2] and in test [3] were “binds”, “no binding” and “no binding”, respectively.

B12: CMTI-I analogue 238, phage isolate (designed binder)
chain: B1 chain with K5R, T6S, S7N
notes: as for B1
As for B12, the binding result is recorded as “binds” in test [1], “no binding” in test [2] and “no binding” in test [3].

B13: CMTI-I analogue 116, phage isolate (designed binder)
chain: B1 chain with P4I, K5R, S7D, E9G
notes: as for B1
B13: the binding result is given as “binds” in test [1], “no binding” in test [2] and “no binding” in test [3].

B14: CMTI-I analogue 115, phage isolate (designed binder)
chain: B1 chain with P4T, L8R
notes: as for B1
B14: the figures for the binding result in test [1], in test [2] and in test [3] were “binds”, “no binding” and “no binding”, respectively.

B15: CMTI-I analogue 113, phage isolate (designed binder)
chain: B1 chain with W2L, S7D, E9G
notes: as for B1
In the case of B15, the binding result is “binds” in test [1], “no binding” in test [2] and “no binding” in test [3].

B16: CMTI-I analogue 222, phage isolate (designed binder)
chain: B1 chain with T6S, S7T, E9G
notes: as for B1
Turning to B16, the binding result is “binds” in test [1], “no binding” in test [2] and “no binding” in test [3].

B17: CMTI-I analogue 228, phage isolate (designed binder)
chain: B1 chain with T6Y, S7T
notes: as for B1
Consider B17, for which the binding result in test [1] is on record as “binds”; in test [2], “no binding”; in test [3] it was “no binding”.

B18: CMTI-I analogue 234, phage isolate (designed binder)
chain: B1 chain with K5R, T6S
notes: as for B1
B18: the binding result in test [1] is reported as “binds”; in test [2], “no binding”; in test [3] it was “no binding”.

B19: CMTI-I analogue 237, phage isolate (designed binder)
chain: B1 chain with K5R, T6S, S7N
notes: as for B1
Turning to B19, the binding result in test [1] is on record as “binds”; in test [2], “no binding”; in test [3] it was “no binding”.

B20: CMTI-I analogue 104, phage isolate (designed binder)
chain: B1 chain with P4S, K5T, T6Y, E9G
notes: as for B1
Regarding B20, the results for the binding result in test [1], in test [2] and in test [3] were “binds”, “no binding” and “no binding”, respectively.

B21: CMTI-I analogue 103, phage isolate (designed binder)
chain: B1 chain with P4S, K5T, T6Y, E9G
notes: as for B1
As to B21, the binding result in test [1] is on record as “binds”; in test [2], “no binding”; in test [3], “no binding”.

B22: CMTI-I analogue 101, phage isolate (designed binder)
chain: B1 chain with E9G
notes: as for B1
With B22, the binding result is on record as “binds” in test [1], “no binding” in test [2] and “no binding” in test [3].

B23: CMTI-I analogue 111, phage isolate (designed binder)
chain: B1 chain with K5R, S7V, L8Q
notes: as for B1
In the case of B23, the binding result in test [1] is “binds”; in test [2] it was “no binding”; in test [3], “no binding”.

B24: CMTI-I analogue 229, phage isolate (designed binder)
chain: B1 chain with T6Y, S7T
notes: as for B1
With B24, the binding result in test [1] is given as “binds”; in test [2], “no binding”; in test [3], “no binding”.

B25: CMTI-I analogue 110, phage isolate (designed binder)
chain: B1 chain with T6S, L8M, E9G, M11K
notes: as for B1
For B25, the binding result in test [1] is on record as “binds”; in test [2] it was “no binding”; in test [3], “no binding”.

B26: CMTI-I analogue 105, phage isolate (designed binder)
chain: B1 chain with W2L
notes: as for B1
B26: the figures for the binding result in test [2], in test [3] and in test [4] were “no binding”, “no binding” and “binds”, respectively.

B27: CMTI-I analogue 232, phage isolate (designed binder)
chain: B1 chain with E9G
notes: as for B1
Turning to B27, the binding result is reported as “binds” in test [1], “no binding” in test [2] and “no binding” in test [3].

B28: CMTI-I analogue 119, phage isolate (designed binder)
chain: B1 chain with S7H, L8K
notes: as for B1
Turning to B28, the binding result in test [1] is on record as “binds”; in test [2], “no binding”; in test [3] it was “no binding”.

B29: CMTI-I analogue 107, phage isolate (designed binder)
chain: B1 chain with W2L
notes: as for B1
As for B29, the results for the binding result in test [2], in test [3] and in test [4] were “no binding”, “no binding” and “binds”, respectively.

B30: CMTI-I analogue 236, phage isolate (designed binder)
chain: B1 chain with K5R, T6S
notes: as for B1
Take B30: the binding result in test [1] is given as “binds”; in test [2] it was “no binding”; in test [3], “no binding”.

B31: CMTI-I analogue 112, phage isolate (designed binder)
chain: B1 chain with K5T, T6A, S7P
notes: as for B1
In the case of B31, the figures for the binding result in test [1], in test [2] and in test [3] were “binds”, “no binding” and “no binding”, respectively.

B32: CMTI-I analogue 233, phage isolate (designed binder)
chain: B1 chain with T6Y, S7T
notes: as for B1
As to B32, the binding result in test [1] was “binds”; in test [2] it was “no binding”; in test [3], “no binding”.
